Experimental data from publication doi:10.1101/2025.01.02.631089, “The atypical filament assembly underpins the inflammasome-independent functions of IFI16” (bioRxiv, 2025).

Target: the molecule itself
Test: cryo-EM structure; auto-assembled filaments of recombinant IFI16 PYD, 73 uM, in 40 mM HEPES pH 7.4, 160 mM NaCl, 1 mM EDTA, 1 mM DTT; helical reconstruction

B1: IFI16^PYD (pyrin domain of human Interferon Inducible Protein 16, residues 1-94) (domain or fragment, UniProt Q16666 1-94, looked up)
chain: MGKKYKNIVLLKGLEVINDYHFRMVKSLLSNDLKLNLKMREEYDKIQIADLMEEKFRGDAGLGKLIKIFEDIPTLEDLAETLKKEKLKVKGPAL
notes: Interferon inducible protein 16 (IFI16), human, pyrin domain, residues 1-94; Assembles into a helical filament (three-start helix, 134.6 degrees rotation, 5.6 Å rise, no rotational symmetry); The number of copies in a filament is not defined; Cloned in pET21b; also called IFI16^PYD filament; source: E. coli BL21(DE3), purified (Ni-NTA, Superdex 75 SEC)
- binding result: binds
